Experimental data taken from paper PMC11524583, “Neurons enhance blood–brain barrier function via upregulating claudin-5 and VE-cadherin expression due to glial cell line-derived neurotrophic factor secretion” (eLife, 2024).
“And” between values parts separate entries of the source, which are not always exact repeats. Equal entries are not always repeated.

Experiments:
p-JNK/JNK = assay: Western blot of p-JNK/JNK in hCMEC/D3 cells; assay type: cell-based, Homo sapiens
Experimental: (§1) Whole-cell and tissue lysates, nucleoprotein, and cytoplasmic protein were prepared using RIPA Lysis Buffer (Beyotime, Shanghai, China) as the described method ([Wu et al., 2021]). Proteins were separated through sodium dodecyl sulfate–polyacrylamide gel electrophoresis and transferred onto nitrocellulose or polyvinylidene difluoride membranes. The membranes were blocked with 5% skim milk and incubated with corresponding primary antibodies at 4°C overnight. After being washed with Tris-buffered saline Tween buffer, the membranes were incubated with secondary antibodies (Cell Signaling Technology, MA, USA) at 1:3000 dilution: Anti-mouse IgG, HRP-linked Antibody (#7076), Anti-rabbit IgG, HRP-linked Antibody (#7074). Protein levels were visualized using a highly sensitive ECL western blotting substrate and a gel imaging system (Tanon Science & Technology, Shanghai, China).

VE-cadherin = assay: Western blot of VE-cadherin in primary rat brain microvascular endothelial cells; assay type: cell-based; conditions: primary rat BMECs, 200 pg/ml GDNF or US-CM
Experimental: (§2) Then, hCMEC/D3, U251, and SH-SY5Y cells were cultured in DMEM/F12 containing 10% FBS, 62.5 µg/ml penicillin and 100 µg/ml streptomycin. Cell viability was assessed using a CCK-8 kit (Beyotime Biotechnology, Shanghai, China), and the results were expressed as the fold of control.
as §1

FOXO1 = assay: Western blot of FOXO1 (p-FOXO1/FOXO1, total, cytoplasmic, nuclear) in hCMEC/D3 cells; assay type: cell-based, Homo sapiens; conditions: for FOXO1/Lamin B Relative Expression, Mean / FOXO1/Lamin B Relative Expression: Nucleus Protein
Experimental: as §1
(§3) Here, hCMEC/D3 cells were plated in the plates or culture dishes at 6 × 10^4 cells/cm^2 and transfected with 10 nM of negative control or human FOXO1, ETS1, and CDH5 siRNA (Tsingke Biotechnology, Beijing, China) for 12 hr using Lipofectamine 3000 (Invitrogen, Carlsbad, CA, USA) reagent according to the manufacturer’s instructions. Cells were then incubated with a medium containing GDNF for 72 hr.
The plasmids encoding FOXO1 (EX-Z7404-M02) were constructed by GeneCopoeia (Rockville, MD, USA). The hCMEC/D3 cells were plated in plates or dishes at 6 × 10^4 cells/cm^2. They were subsequently transfected with 1 µg of negative control or plasmids encoding FOXO1 6 hr using Lipofectamine 3000 reagent according to the manufacturer’s instructions. Transfected cells were then incubated with the medium containing GDNF for 72 hr.

[1] = test system: hCMEC/D3 mono-culture BBB model; assay: TEER of hCMEC/D3 mono-culture BBB model; assay type: cell-based, Homo sapiens; conditions: for TEER: individual replicates
p-ERK/ERK = assay: Western blot of p-ERK/ERK in hCMEC/D3 cells; assay type: cell-based, Homo sapiens
Experimental: as §1
(§4) Exogenous and endogenous GDNF in the medium was neutralized with anti-GDNF antibody (#AF-212-NA, R&D system, Minneapolis, MN, USA). 0.25, 0.5, and 1.0 μg/ml anti-GDNF antibody was added into the US-CM or medium containing 200 pg/ml GDNF, and then the medium was preincubated at 4°C for 1 hr. The hCMEC/D3 cells were incubated with 200 pg/ml GDNF or US-CM containing anti-GDNF antibody or not for 6 days, and then cell lysate was collected for western blot. The medium was replaced every 24 hr.

ETS1 = assay: Western blot of total and nuclear ETS1 in hCMEC/D3 cells; assay type: cell-based, Homo sapiens; conditions: for ETS1/β-actin Relative Expression, Mean / ETS1/Lamin B Relative Expression, Mean: group mean; for ETS1/β-actin Relative Expression / ETS1/Lamin B Relative Expression: individual replicates
Experimental: as §1, §3

p-AKT/AKT = assay: Western blot of p-AKT/AKT in hCMEC/D3 cells; assay type: cell-based, Homo sapiens
Experimental: as §1, §4

claudin-5 = assay: Western blot of claudin-5 in primary rat brain microvascular endothelial cells; assay type: cell-based; conditions: primary rat BMECs, 200 pg/ml GDNF or US-CM
Experimental: as §2, §1

[2] = relative to Con, single replicate (Figure 2J)
[3] = Cytoplasm protein, Figure 4F, group mean, Con = 1.000
[4] = Cytoplasm protein, Figure 4F, individual replicates, relative to Con
[5] = Figure 4B, Cytoplasm Protein, group mean, Con = 1.000
[6] = Figure 4B, Cytoplasm Protein, individual replicates, relative to Con
[7] = hCMEC/D3 cells, 200 pg/ml GDNF or US-CM
[8] = mean of 4, relative to Con, GDNF alone, Figure 3E
[9] = single replicate, relative to Con, GDNF alone, Figure 3E

B1: GDNF: glial cell line-derived neurotrophic factor, recombinant protein (R&D system) (protein, UniProt P39905 78-211, looked up)
Glial cell line-derived …: SPDKQMAVLPRRERNRQAAAANPENSRGKGRRGQRGKNRGCVLTAIHLNVTDLGLGYETKEELIFRYCSGSCDAAETTYDKILKNLSRNRRLVSDKVGQACCRPIAFDDDLSFLDDNLVYHILRKHSAKRCGCI
p-JNK/JNK; hCMEC/D3 cells, 200 pg/ml GDNF
  phosphorylation of JNK: did not stimulate
p-JNK/JNK; relative to Con (mean 1.000), mean of 4, Figure 3C
  p-JNK/JNK Relative Expression Mean: 1.172
p-JNK/JNK; relative to Con (mean 1.000), single replicates, Figure 3C
  p-JNK/JNK Relative Expression: 1.036 and 1.122 and 1.219 and 1.311
VE-cadherin; Con = 1.000 (Figure 2J)
  VE-cadherin/β-actin Relative Expression, Mean: 1.773
VE-cadherin; [2]
  VE-cadherin/β-actin Relative Expression: 2.095 and 1.692 and 1.731 and 1.576
FOXO1; [3]
  FOXO1/GAPDH Relative Expression, Mean: 1.482
  p-FOXO1/GAPDH Relative Expression, Mean: 1.560
FOXO1; [4]
  FOXO1/GAPDH Relative Expression: 1.349 and 1.335 and 1.673 and 1.570
  p-FOXO1/GAPDH Relative Expression: 1.317 and 1.387 and 1.877 and 1.660
FOXO1; Figure 4A, group mean, Con = 1.000
  p-FOXO1/FOXO1 Relative Expression, Mean: 2.044
FOXO1; Figure 4A, individual replicates, relative to Con
  p-FOXO1/FOXO1 Relative Expression: 2.153 and 1.987 and 1.525 and 2.510
FOXO1; Figure 4A, total FOXO1, group mean, Con = 1.000
  FOXO1/β-actin Relative Expression, Mean: 0.802
FOXO1; Figure 4A, total FOXO1, individual replicates, relative to Con
  FOXO1/β-actin Relative Expression: 0.773 and 0.798 and 1.007 and 0.631
FOXO1; [5]
  FOXO1/GAPDH Relative Expression, Mean: 1.680
  p-FOXO1/GAPDH Relative Expression, Mean: 1.601
FOXO1; [6]
  FOXO1/GAPDH Relative Expression: 1.609 and 1.840 and 1.778 and 1.494
  p-FOXO1/GAPDH Relative Expression: 1.850 and 1.523 and 1.386 and 1.647
FOXO1; Figure 4B, group mean, Con = 1.000
  FOXO1/Lamin B Relative Expression, Mean: 0.556
FOXO1; Figure 4B, individual replicates, relative to Con
  FOXO1/Lamin B Relative Expression: 0.674 and 0.519 and 0.531 and 0.499
FOXO1; Figure 4F, group mean, Con = 1.000
  FOXO1/Lamin B Relative Expression, Mean: 0.751
FOXO1; Figure 4F, individual replicates, relative to Con
  FOXO1/Lamin B Relative Expression: 0.817 and 0.783 and 0.758 and 0.647
FOXO1; Whole cell lysate, Figure 4F, group mean, Con = 1.000
  p-FOXO1/FOXO1 Relative Expression, Mean: 1.362
FOXO1; Whole cell lysate, Figure 4F, individual replicates, relative to Con
  p-FOXO1/FOXO1 Relative Expression: 1.502 and 1.205 and 1.426 and 1.314
FOXO1; hCMEC/D3 cells, GDNF or US-CM
  FOXO1 phosphorylation (p-FOXO1): significantly enhanced
  levels of nuclear FOXO1: decreased
  levels of phosphorylated and unphosphorylated FOXO1 in the cytoplasm: increased
[1]; Figure 2M, Day3
  TEER: 61.71 Ω·cm2 and 62.7 Ω·cm2 and 62.37 Ω·cm2
[1]; Figure 2M, Day4
  TEER: 64.35 Ω·cm2 and 63.69 Ω·cm2 and 66 Ω·cm2 and 65.34 Ω·cm2
[1]; Figure 2M, Day5
  TEER: 68.31 Ω·cm2 and 66.99 Ω·cm2 and 67.65 Ω·cm2 and 67.32 Ω·cm2
[1]; Figure 2M, Day6
  TEER: 69.3 Ω·cm2 and 67.32 Ω·cm2 and 68.64 Ω·cm2 and 66.99 Ω·cm2
[1]; Figure 2O, Day3
  TEER: 71.61 Ω·cm2 and 69.3 Ω·cm2 and 68.64 Ω·cm2 and 69.63 Ω·cm2
[1]; Figure 2O, Day4
  TEER: 74.25 Ω·cm2 and 76.23 Ω·cm2 and 72.27 Ω·cm2 and 74.91 Ω·cm2
[1]; Figure 2O, Day5
  TEER: 77.22 Ω·cm2 and 72.93 Ω·cm2 and 74.58 Ω·cm2 and 77.55 Ω·cm2
[1]; Figure 2O, Day6
  TEER: 76.23 Ω·cm2 and 73.92 Ω·cm2 and 76.56 Ω·cm2
[1]; hCMEC/D3 mono-culture, 200 pg/ml GDNF, day 6
  TEER values: significantly increased
p-ERK/ERK; [7]
  phosphorylation of ERK (p-ERK): accompanied by the phosphorylation
p-ERK/ERK; [8]
  p-ERK/ERK Relative Expression, Mean: 1.352
p-ERK/ERK; relative to Con (mean 1.000), mean of 4, Figure 3B
  p-ERK/ERK Relative Expression, Mean: 1.377
p-ERK/ERK; relative to Con (mean 1.000), single replicates, Figure 3B
  p-ERK/ERK Relative Expression: 1.512 and 1.333 and 1.310 and 1.351
p-ERK/ERK; [9]
  p-ERK/ERK Relative Expression: 1.315 and 1.511 and 1.307 and 1.277
ETS1; Figure 5A, Con = 1.000
  ETS1/β-actin Relative Expression, Mean: 1.877
ETS1; Figure 5A, relative to Con
  ETS1/β-actin Relative Expression: 1.777 and 1.712 and 2.125 and 1.893
ETS1; Figure 5B, Con = 1.000
  ETS1/Lamin B Relative Expression, Mean: 1.560
ETS1; Figure 5B, relative to Con
  ETS1/Lamin B Relative Expression: 1.659 and 1.595 and 1.316 and 1.670
ETS1; Figure 5C, Con = 1.000, GDNF group of LY and U0 inhibitor experiment
  ETS1/β-actin Relative Expression, Mean: 1.287
ETS1; Figure 5C, relative to Con, GDNF group of LY and U0 inhibitor experiment
  ETS1/β-actin Relative Expression: 1.182 and 1.224 and 1.389 and 1.354
ETS1; Figure 5D, Con = 1.000
  ETS1/Lamin B Relative Expression, Mean: 2.084
ETS1; Figure 5D, relative to Con
  ETS1/Lamin B Relative Expression: 1.875 and 2.209 and 2.073 and 2.180
ETS1; Figure 5E, NC = 1.000
  ETS1/β-actin Relative Expression, Mean: 1.499
ETS1; Figure 5E, relative to NC
  ETS1/β-actin Relative Expression: 1.466 and 1.523 and 1.519 and 1.490
ETS1; Figure 5F, NC = 1.000
  ETS1/Lamin B Relative Expression, Mean: 1.528
ETS1; Figure 5F, relative to NC
  ETS1/Lamin B Relative Expression: 1.629 and 1.498 and 1.595 and 1.392
ETS1; hCMEC/D3 cells, US-CM or GDNF
  nuclear ETS1 expression: significantly increased
  total ETS1 expression: significantly increased
p-AKT/AKT; [7]
  phosphorylation of AKT (p-AKT): accompanied by the phosphorylation
p-AKT/AKT; [8]
  p-AKT/AKT Relative Expression, Mean: 1.284
p-AKT/AKT; relative to Con (mean 1.000), mean of 4, Figure 3A
  p-AKT/AKT Relative Expression, Mean: 1.345
p-AKT/AKT; relative to Con (mean 1.000), single replicates, Figure 3A
  p-AKT/AKT Relative Expression: 1.311 and 1.24 and 1.38 and 1.4488
p-AKT/AKT; [9]
  p-AKT/AKT Relative Expression: 1.359 and 1.208 and 1.388 and 1.180
claudin-5; Con = 1.000 (Figure 2J)
  Claudin-5/β-actin Relative Expression, Mean: 1.469
claudin-5; [2]
  Claudin-5/β-actin Relative Expression: 1.317 and 1.479 and 1.586 and 1.495
